No end group written: not given here.
T1: N-terminal intrinsically disordered region (IDR) of ATG8 INTERACTING PROTEIN1 (ATI1) (Arabidopsis thaliana, UniProt O82775 1-180)
T1 sequence (looked up): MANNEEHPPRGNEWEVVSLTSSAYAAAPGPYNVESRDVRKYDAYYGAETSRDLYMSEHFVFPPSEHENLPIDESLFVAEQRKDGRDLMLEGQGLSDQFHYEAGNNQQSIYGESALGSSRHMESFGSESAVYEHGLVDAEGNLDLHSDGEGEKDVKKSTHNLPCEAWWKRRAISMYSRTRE


Columns and labels:
[1] = target: T1, N-terminal intrinsically disordered …; assay: NMR titration
[2] = target: T1, N-terminal intrinsically disordered …; assay: MST

Row | binding result [1] | Kd [2] [µM] | Binder
1 | binds |  | SSSKAFKFPMRPGKGQSGKRC (also: 15N-labeled) [15N-labeled AGO1 N-coil peptide, wild type]
2 |  | 11 | His6-SUMO-NcGN^AGO1 (N-coil plus globular N-domain of Arabidopsis AGO1), wild type N-coil (domain or fragment, Arabidopsis thaliana, UniProt O04379-2 172-335, looked up, red maleimide fluorophore on Cys192 (Monolith NT Protein Labeling Kit Red - Maleimide)) SSSKAFKFPMRPGKGQSGKRCIVKANHFFAELPDKDLHHYDVTITPEVTSRGVNRAVMKQLVDNYRDSHLGSRLPAYDGRKSLYTAGPLPFNSKEFRINLLDEEVGAGGQRREREFKVVIKLVARADLHHLGMFLEGKQSDAPQEAAQVADIVSRELPTSRIRY
3 |  | 47 | His6-SUMO-NcGN^AGO1 K178E (domain or fragment, Arabidopsis thaliana, UniProt O04379-2 172-335, looked up, red maleimide fluorophore on Cys192 (Monolith NT Protein Labeling Kit Red - Maleimide)) SSSKAFEFPMRPGKGQSGKRCIVKANHFFAELPDKDLHHYDVTITPEVTSRGVNRAVMKQLVDNYRDSHLGSRLPAYDGRKSLYTAGPLPFNSKEFRINLLDEEVGAGGQRREREFKVVIKLVARADLHHLGMFLEGKQSDAPQEAAQVADIVSRELPTSRIRY
